Assay [1] concerns the target human CRTAM on in vitro activated human T cells (human) (UniProt O95727). Briefly: flow cytometry on in vitro activated human T cells, MFI against antibody concentration. A general note: In flow cytometry, cells or beads pass a laser one at a time.
Assay [2] deals with T1, human CRTAM on in vitro activated human T cells (human, UniProt O95727 18-393).
T1 sequence: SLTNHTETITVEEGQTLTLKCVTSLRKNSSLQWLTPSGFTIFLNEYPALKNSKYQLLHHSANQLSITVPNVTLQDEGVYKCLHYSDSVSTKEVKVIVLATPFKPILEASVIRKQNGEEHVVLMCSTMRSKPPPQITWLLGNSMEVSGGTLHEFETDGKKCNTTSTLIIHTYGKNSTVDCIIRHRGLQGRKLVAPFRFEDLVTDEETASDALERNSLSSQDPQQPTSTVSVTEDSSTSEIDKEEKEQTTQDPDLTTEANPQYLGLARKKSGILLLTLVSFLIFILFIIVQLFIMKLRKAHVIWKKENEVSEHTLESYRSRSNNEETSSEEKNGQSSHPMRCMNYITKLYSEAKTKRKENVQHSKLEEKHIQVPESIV
Briefly: flow cytometry on in vitro activated human T cells, goat anti-rat IgG-RPE detection, MFI against antibody concentration. As for the experimental part:
Following this the cells were cultured with anti-CD3/anti-CD28 activation beads (Cat #11132D, Thermo Fisher, Waltham, Mass.) for 24 hours before FACS analysis (data not shown).
Fluorescence-activated cell sorting (FACS) analysis was performed in 96-well plate format according to standard protocols. Activated T cells were prepared as above. All subsequent steps of the staining protocol were carried out on ice with ice-cold reagents except for the centrifugation steps which was done at RT. Three-fold serial dilutions of the antibodies, were prepared in FACS buffer to give a 12-point titration curve with final concentrations ranging from 133 nM to 1 pM. The corresponding hybridoma supernatants, isotype controls, and positive control antibodies were diluted in ice cold FACS buffer to be tested at a single point with a final concentration of 30 nM. The antibody dilutions were each dispensed (100 μL/well) into one well for each cell line. […] The final cell pellets were re-suspended in […]+50 μl of 4% paraformaldehyde and fixed until ready to be acquired in a Flow cytometer. […] Geometric mean fluorescence intensity (GMFI or Geo Mean) of each sample was determined using a Guava Easycyte Plus high-throughput flow cytometer (96 well plates) and raw data were analyzed using the Guava Cytosoft Pro Software Module, version 2.2.2 (Millipore, Billerica Mass.). […]

“commercially available anti-CRTAM antibody CR24.1 (BioLegend)” came in with a concentration giving a half-maximal response (EC50 (read off the curve)) in assay [1] of 2 µg/mL.

B1: 5A11 parental rat monoclonal anti-CRTAM antibody (antibody, V domains shown)
VH: AVQLVESGGGLVQPKESLKISCAASGFTFSDAAMYWVRQAPGKGLEWVARIRTKTNNYAAHYVESVKGRFTVSRDDSKSMVYLQMDNLKTDDTAMYYCTSVPQGTQDYWGQGVMVTVSS
VL: SYELIQPPSASVTLGNTVSLTCVGDELSKRYVQWSQQKPDKTIVSVIYKDSERPSGISDRFSGSSSGTTATLTIHGTLAEDEADYYCLSTYSDDNLPVFGGGTKLTVL
notes: Rat monoclonal from a hybridoma, detected with goat anti-rat IgG; also called antibody 5A11; BUH-5A11-F2
As to B1, the “EC50 (read off the curve)” value in assay [2] was roughly 0.02 µg/mL.

As usually defined, the EC50 (read off the curve) is the concentration needed to bring the measured effect to its halfway point.

Source of the values: US20200262927A1 (OXFORD BIOTHERAPEUTICS, published 2020).
